Data on one molecule can be found in publication PMC8712213 (Nature, 2020).

This assay addresses ALG6 from Saccharomyces cerevisiae (tag-cleaved) (S. cerevisiae, UniProt Q12001). As to the kind of experiment: SEC. (In general: SEC sorts molecules by how far they enter the pores of the column.)

Chain of ALG6 from Saccharomyces cerevisiae (tag-cleaved) (Q12001 whole entry): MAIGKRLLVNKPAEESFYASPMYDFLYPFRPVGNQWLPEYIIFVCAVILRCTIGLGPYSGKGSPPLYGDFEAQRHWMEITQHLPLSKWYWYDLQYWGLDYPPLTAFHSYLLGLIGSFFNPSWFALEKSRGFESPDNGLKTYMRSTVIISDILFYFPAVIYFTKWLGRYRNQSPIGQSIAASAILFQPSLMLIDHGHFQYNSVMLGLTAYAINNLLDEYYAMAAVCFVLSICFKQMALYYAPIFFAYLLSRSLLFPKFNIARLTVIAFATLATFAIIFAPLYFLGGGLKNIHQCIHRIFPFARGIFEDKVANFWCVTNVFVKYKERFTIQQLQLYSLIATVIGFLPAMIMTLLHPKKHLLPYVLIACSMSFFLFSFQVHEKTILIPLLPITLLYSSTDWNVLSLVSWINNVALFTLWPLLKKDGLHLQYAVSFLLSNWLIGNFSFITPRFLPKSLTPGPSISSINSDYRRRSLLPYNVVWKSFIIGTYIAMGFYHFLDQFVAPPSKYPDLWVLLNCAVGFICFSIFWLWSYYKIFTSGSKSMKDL

B1: 6AG9-Fab (Fab, V domains shown)
VH: EVQLVESGGGLVQPGGSLRLSCAASGFNVYSSSIHWVRQAPGKGLEWVASISSYSGYTSYADSVKGRFTISADTSKNTAYLQMNSLRAEDTAVYYCAREYWSWYSYSYGIDYWGQGTLVTVSS
VL: DIQMTQSPSSLSASVGDRVTITCRASQSVSSAVAWYQQKPGKAPKLLIYSASSLYSGVPSRFSGSRSGTDFTLTISSLQPEDFATYYCQQSYWVGYPITFGQGTKVEIK
Turning to B1, the binding result is “binds”.
